Biological target: T1, EphA3 (Homo sapiens, UniProt P29320)
T1 construct: expressed in transfected cells
T1 sequence (P29320 21-983): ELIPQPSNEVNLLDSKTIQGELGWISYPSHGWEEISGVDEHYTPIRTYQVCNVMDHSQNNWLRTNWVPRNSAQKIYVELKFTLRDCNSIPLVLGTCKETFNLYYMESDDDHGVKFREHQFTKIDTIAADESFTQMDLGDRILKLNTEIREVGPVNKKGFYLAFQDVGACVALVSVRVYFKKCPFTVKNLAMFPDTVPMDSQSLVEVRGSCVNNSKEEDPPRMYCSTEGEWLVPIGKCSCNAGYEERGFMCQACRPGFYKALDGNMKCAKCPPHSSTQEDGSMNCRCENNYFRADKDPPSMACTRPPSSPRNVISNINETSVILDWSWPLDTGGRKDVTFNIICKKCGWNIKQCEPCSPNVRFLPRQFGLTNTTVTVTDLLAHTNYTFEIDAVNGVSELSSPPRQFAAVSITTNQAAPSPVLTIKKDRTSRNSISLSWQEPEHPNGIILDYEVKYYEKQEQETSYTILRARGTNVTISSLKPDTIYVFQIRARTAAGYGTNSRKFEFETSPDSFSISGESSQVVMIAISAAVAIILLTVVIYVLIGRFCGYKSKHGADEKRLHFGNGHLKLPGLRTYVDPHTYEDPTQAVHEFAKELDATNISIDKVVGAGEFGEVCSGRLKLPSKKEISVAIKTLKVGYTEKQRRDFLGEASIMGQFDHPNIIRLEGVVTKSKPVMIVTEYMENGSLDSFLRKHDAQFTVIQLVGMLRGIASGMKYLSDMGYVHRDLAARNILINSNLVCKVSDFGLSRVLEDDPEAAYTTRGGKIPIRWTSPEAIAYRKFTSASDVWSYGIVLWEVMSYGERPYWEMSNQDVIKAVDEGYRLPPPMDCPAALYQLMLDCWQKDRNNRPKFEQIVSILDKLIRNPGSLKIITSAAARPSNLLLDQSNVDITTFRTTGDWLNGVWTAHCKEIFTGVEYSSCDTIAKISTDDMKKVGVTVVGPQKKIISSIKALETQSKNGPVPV
Test: Co-immunoprecipitation from transfected cells, Western blot
Assay type: cell-based
Settings: EphA3/293 cells, EEE-A substituted construct
Protocol: FIG. 1. EphA3-ADAM10 association, ephrin-A5 cleavage and ephrin internalisation. • A. Association of ADAM10 with EphA3 in LiBr melanoma cells and parental or stably transfected EphA3/HEK293 cells. The cells were treated with clustered ephrin-Fc (A5 or A2) or were left untreated (−) prior to lysis. Anti-EphA3 immunoprecipitates from lysates were analysed by Western blot for endogenous ADAM10 (“p” and “m” indicate the pro (unprocessed) and mature (processed) forms of ADAM10). Aliquots from immunoprecipitates were blotted for EphA3 levels to indicate loading (lower panel). […] EphA3/HEK293 or ephrin-A5/HEK293 cells were transfected to express HA-tagged ADAM10ΔPM. Western Blots of anti-HA immuno-precipitates were analysed with antibodies against ephrin-A5 and EphA3, parallel control samples with anti-ADAM10 antibodies. Lysates of ephrin-A5/HEK 293 cells were also extracted with Protein-A Sepharose-bound EphA3 Fc and analysed with anti-ephrin-A5 antibodies. • C. […] Pooled cell lysates and supernatants were pre-cleared with excess Protein-A Sepharose, cleaved ephrin-A5 was extracted using EphA3-Fc coupled to Protein-A Sepharose and analysed by anti-ephrin-A5 immuno-blot. Recombinant, monomeric, single-chain ephrin-A5 (Himanen et al., 2004, Nat Neurosci. 7 501-9; ephrin std) was analysed in parallel. • D. Ephrin-A5 cleavage and internalisation are inhibited by dominant-negative ADAM10. […]

B1: ADAM10Δpro: cell-surface ADAM10Δpro incorporating the EEE-A amino acid substitutions (protein)
chain: SGQPICGNGMVEQGEECDCGYSDQCKDDCCFDANQPEGKKCKLKPGKQCSPSQGPCCTAQCAFKSKSEKCRDDSDCAKEGICNGFTALCPASDPKPNFTDCNRHTQVCINGQCAGSICAKYDLAACTCASSDGKDDKELCHVCCMKKMAPSTCASTGSLQWSKQFSGRTITLQPGSPCNDFRGYCDVFMRCRLVDADGPLARLKKAIFSPQLYENIAEWIVAHWWAVLLMGIALIMLMAGFIKICSVHTPSSNPKLPPPKPLPGTLKRRRPPQPIQQPPRQRPRESYQMGHMRR
modifications: left off: small tags and cut ends
notes: cell-surface ADAM10Δpro incorporating the EEE-A amino acid substitutions
  ephrin-independent constitutive association with EphA3: remained unchanged

Source: patent US7960513B2, “Antibody against a human ADAM protease” (Monash University, priority 2004, dated 2011)
